Reference: patent EP4703383A1 (Shenzhen Genuine Biomedical Technology Co., Ltd, dated 2026)

T1: extracellular segment of the PRLR protein of cynomolgus monkey with avi-(his)6 tag (cynoPRLR-ECD-avi-his) (cynomolgus monkey)
T1 construct: The assays say only 'monomeric monkey PRLR extracellular domain / ECD'; also called cynomolgus monkey PRLR extracellular domain; Monkey PRLR
T1 chain: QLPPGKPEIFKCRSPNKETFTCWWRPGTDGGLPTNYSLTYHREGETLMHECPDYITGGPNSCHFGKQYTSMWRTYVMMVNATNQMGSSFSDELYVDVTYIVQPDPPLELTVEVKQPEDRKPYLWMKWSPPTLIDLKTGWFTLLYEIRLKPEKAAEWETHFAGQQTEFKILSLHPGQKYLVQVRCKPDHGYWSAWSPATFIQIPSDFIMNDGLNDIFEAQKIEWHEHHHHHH

T2: human PRLR expressed on cells (human, UniProt P16471 25-622)
T2 sequence: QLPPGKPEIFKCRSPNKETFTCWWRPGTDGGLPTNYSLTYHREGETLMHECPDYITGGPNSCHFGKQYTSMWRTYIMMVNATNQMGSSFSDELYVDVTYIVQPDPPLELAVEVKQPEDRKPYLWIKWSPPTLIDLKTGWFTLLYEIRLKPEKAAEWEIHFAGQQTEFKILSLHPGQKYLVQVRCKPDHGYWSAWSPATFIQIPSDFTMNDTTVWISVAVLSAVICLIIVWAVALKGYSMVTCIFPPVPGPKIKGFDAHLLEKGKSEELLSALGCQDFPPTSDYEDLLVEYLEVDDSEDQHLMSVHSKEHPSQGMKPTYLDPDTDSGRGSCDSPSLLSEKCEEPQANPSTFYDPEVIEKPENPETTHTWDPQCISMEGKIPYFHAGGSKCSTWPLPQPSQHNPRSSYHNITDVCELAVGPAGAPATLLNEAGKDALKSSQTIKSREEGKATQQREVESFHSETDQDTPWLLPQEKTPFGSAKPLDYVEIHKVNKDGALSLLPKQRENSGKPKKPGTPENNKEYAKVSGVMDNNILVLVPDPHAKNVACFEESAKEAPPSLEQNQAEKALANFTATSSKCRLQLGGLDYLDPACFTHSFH

T3: extracellular segment of human PRLR protein with avi-(his)6 tag (hPRLR-ECD-avi-his) (human, UniProt P16471 25-234)
T3 construct: The assays say only 'monomeric human PRLR extracellular domain / ECD'; also called human PRLR extracellular domain; monomeric PRLR ECD
T3 sequence: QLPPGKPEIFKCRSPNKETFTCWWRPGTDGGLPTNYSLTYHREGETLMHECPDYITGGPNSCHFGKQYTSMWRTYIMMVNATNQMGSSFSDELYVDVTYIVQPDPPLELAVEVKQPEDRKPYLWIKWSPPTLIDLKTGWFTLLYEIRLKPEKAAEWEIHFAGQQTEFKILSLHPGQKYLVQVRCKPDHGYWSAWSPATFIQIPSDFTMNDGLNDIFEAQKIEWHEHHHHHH


Assays:
[1] = target: T4, recombinant mesothelin protein with the same tag; test: ELISA, coated antigen 1 ug/mL, antibody 10 ug/mL
T4 construct: Control antigen of the species-specific ELISA; also called Control protein

[2] = target: T1, extracellular segment of the PRLR …; test: ELISA, coated antigen 1 ug/mL, antibody 10 ug/mL
[3] = target: T1, extracellular segment of the PRLR …; test: ELISA, coated antigen 1 ug/mL
[4] = target: T2, human PRLR expressed on cells; test: cell-based or functional assay
[5] = target: T3, extracellular segment of human PRLR …; test: BLI epitope binning on biotinylated human PRLR ECD, 100 nM each; competitor: P-PR-C05H-v2; which axis is the first antibody is not stated
[6] = target: T3, extracellular segment of human PRLR …; test: BLI, biotinylated monomeric PRLR ECD on streptavidin sensor, antibody 3.125-100 nM in solution, 1:1 fit
[7] = target: T1, extracellular segment of the PRLR …; test: as above
[8] = target: T3, extracellular segment of human PRLR …; test: BLI epitope binning on biotinylated human PRLR ECD, 100 nM each; competitor: P-PR-C07H-v; which axis is the first antibody is not stated
[9] = target: T3, extracellular segment of human PRLR …; test: BLI epitope binning on biotinylated human PRLR ECD, 100 nM each; competitor: HP-PR01D12-v; which axis is the first antibody is not stated

Binder | absorbance at 450nm [1] | absorbance at 450nm [2] | binding result [3] | Blocking percentage (%) of 100 nM antibody (STAT5 luciferase reporter) [4] [%] | ratio of the binding signal of the second antibody to the reference [5] [%] | Kd [6] [pM] | koff [6] [s⁻¹] | kon [6] [M⁻¹ s⁻¹] | Kd [7] [pM] | koff [7] [s⁻¹] | kon [7] [M⁻¹ s⁻¹] | ratio of the binding signal of the second antibody to the reference [8] [%] | ratio of the binding signal of the second antibody to the reference [9] [%]
HP-PR02H02 (antibody, V domains shown, also called Antibody No. 21) VH: EVMLVESGGGLVKPGGSLKLACAASGFTFSSYTMSWVRQTPEKRLEWVATISSGGSYTYYPDSVKGRFTISRDNAKNTLYLQLSSLKSEDTAMYYCTRDRYYSTTPDWYFDVWGAGTTLTVSS VL: DIVITQSPATLSVTPGDSVSLSCRATQIIFNNLHWYQQKSHESPRLLITYTSQSISGIPSRFSGSGSGTDFTLTINSVETEDFGMYFCQQSNTWPRTFGGGTKLEIK | 0.076 | 0.097 | no binding (tested: 10 µg/mL) | – | – | – | – | – | – | – | – | – | –
HP-PR01D12-v (antibody, V domains shown, also called Antibody No. 27; hHP-PR01D12-v) VH: EVQLVESGGGLVQPGGSLRLSCAASGFTFSSFGMNWVRQAPGKGLEWVAYISSGSSIIYYADSVKGRFTISRDNSKNTLYLQMNSLRAEDTAVYYCTRFYGYIPFDYWGQGTLVTVSS VL: DIQMTQSPSSLSASVGDRVTITCRASSSLIYLHWYQQKPGKAPKLWIYDTSKLASGVPSRFSGSGSGNDYTLTISSLQPEDFATYYCFQGSGYPLTFGQGTKVEIK | – | – | – | 46.7 | 9.2 | 1.13 | 4.88e-07 | 431000 | < 1 | 3.43e-07 | 453000 | 31.8 | 14.4
HP-PR01B01 (antibody, V domains shown, also called Antibody No. 23) VH: EVHLVESGPDLVKPSQSLSLTCTVTGYSITSGYNWHWIRQFPGNKLEWMGYIHYSGSTKYDPSLKSRISFTRDTSRNQFFLQLNSVTTEDRATYYCARSEAGGYSWFAYWGQGTLVTVSA VL: DIVMTQSPAIMSASPGEKVTMACSASSSVNYMHWYQQKSGTSPKRWIYDTSKLASGVPARFSGSGSGTSYSLTISSMEAEDAATYYCQQWSSNPLTFGAGTKLELK | 0.076 | 0.077 | no binding (tested: 10 µg/mL) | – | – | – | – | – | – | – | – | – | –

Second part, the binder after the results:

absorbance at 450nm [1] | absorbance at 450nm [2] | binding result [3] | Blocking percentage (%) of 100 nM antibody (STAT5 luciferase reporter) [4] [%] | ratio of the binding signal of the second antibody to the reference [5] [%] | Kd [6] [pM] | koff [6] [s⁻¹] | kon [6] [M⁻¹ s⁻¹] | Kd [7] [pM] | koff [7] [s⁻¹] | kon [7] [M⁻¹ s⁻¹] | ratio of the binding signal of the second antibody to the reference [8] [%] | ratio of the binding signal of the second antibody to the reference [9] [%] | Binder
– | – | – | 17.3 | 11.2 | < 1 | 5.03e-07 | 937000 | < 1 | 4.08e-07 | 1.04e+06 | 35 | 15.5 | P-PR-C05H-v2 (antibody, V domains shown, Humanized antibody from P-PR-C05H; also called Antibody No. 25; Anti-P-PR-C05H-v2) VH: EVQLVQSGAEVKKPGASVKVSCKASGFTFTTFWVHWVRQAPGQGLEWIGNIAPGSTSTNYAQKFQGRATLTVDTSISTAYMELSSLRSEDTAVYYCIRHSGNYFNAMDYWGQGTLVTVSS VL: DIVMTQSPLSLPVTPGEPASISCRSSKSLLHSNGNTYLYWFLQKPGQSPQLLIYRMSNRASGVPDRFSGSGSGTDFTLKISRVEAEDVGVYYCMQHLEYPLTFGQGTKVEIK
– | – | – | 100 | 52.7 | 3940 | 0.0032 | 813000 | < 1 | 4.19e-07 | 663000 | 13.4 | 49.8 | P-PR-C07H-v (antibody, V domains shown, Humanized antibody from P-PR-C07H; also called Antibody No. 26; hP-PR-C07H-v) VH: EVQLVQSGAEVKKPGSSVKVSCKASGYTFTNNWLAWIRQAPGQGLEWIGDIYPGGVYTNYNQKFQGRATLTADTSTSTAYMELSSLRSEDTAVYFCYYGDFWSAYWGQGTLVTVSS VL: DIVMTQSPLSLPVTPGEPASISCRSSKSLLHSNGNTYLYWFLQKPGQSPQLLIYRMSNRASGVPDRFSGSGSGTDFTLKISRVEAEDVGVYYCMQHLEYPLTFGQGTKVEIK
